# In US20260167721A1 (ABLEXIS, published 2026):
# Experiments:
# [1] = target: T1, recombinant human CD3 epsilon/delta heterodimer (human, UniProt P07766 23-126; P04234 22-105); assay: BLI (Octet), mAb 5 ug/mL on FAB2G sensor, hCD3 E/D 200-50 nM
# T1 construct: Recombinant heterodimer used as analyte in Octet; also called hCD3 E/D; human CD3E/D
# Description: (§1) Samples were evaluated by flow cytometry analysis against Jurkat and human Pan-T cells (FIG. 1B) as well as by Octet against recombinant human CD3 proteins to evaluate apparent affinities and binding off-rates (Table 6, infra).
# [2] = target: T2, recombinant human CD3 epsilon/gamma heterodimer (human, UniProt P07766 23-126; P09693 23-116); assay: BLI (Octet), mAb 5 ug/mL on FAB2G sensor, hCD3 E/G 200-50 nM;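 also: antibodies purified from hybridoma supernatants, measured by Octet binding to recombinant human CD3 protein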
# T2 construct: Recombinant heterodimer used as analyte in Octet; also called hCD3 E/G
# T2 sequence (P07766 23-126, chain 1 of 2): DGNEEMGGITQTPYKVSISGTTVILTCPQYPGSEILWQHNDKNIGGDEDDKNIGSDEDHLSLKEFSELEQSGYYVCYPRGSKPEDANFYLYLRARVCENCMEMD
# T2 sequence (P09693 23-116, chain 2 of 2): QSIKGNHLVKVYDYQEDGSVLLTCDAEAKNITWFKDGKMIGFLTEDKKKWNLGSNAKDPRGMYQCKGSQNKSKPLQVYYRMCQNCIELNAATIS
# Description: as §1
# T1 sequence (P07766 23-126, stated change not applied, chain 1 of 2): as the sequence (P07766 23-126, chain 1 of 2) above
# T1 sequence (P04234 22-105, stated change not applied, chain 2 of 2): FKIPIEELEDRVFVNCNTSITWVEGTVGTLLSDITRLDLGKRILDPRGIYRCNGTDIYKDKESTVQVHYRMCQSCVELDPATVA
Binder,Kd [1] [nM],Response [1],koff [1] [s⁻¹],kon [1] [M⁻¹ s⁻¹],Kd [2] [nM],Response [2],koff [2] [s⁻¹],kon [2] [M⁻¹ s⁻¹]
"ABL-CD3-65 (antibody, V domains shown, mAb purified from hybridoma; chimeric AlivaMab IgG (human VH, CH1 and upper hinge; mouse middle hinge, CH2, CH3; human light chain)) VH: QVQLQQWGAGLLKPSETLSLTCAVYGGSFSGYYWSWIRQPPGKGLEWIGEINHSGSTNYNPSLKSRVTISVDTSKNQFSLKLSSVTAADTAVYYCAREYYYYGMDVWGQGTTVTVSS VL: not shown",22.7,0.01,0.00643,283000,18.7,0.01,0.00174,93200
"ABL-CD3-87 (antibody, V domains shown, mAb purified from hybridoma; chimeric AlivaMab IgG (human VH, CH1 and upper hinge; mouse middle hinge, CH2, CH3; human light chain)) VH: EVQLVESGGGLVKFGGSLRLSCAASGFTFSRYSMNWVRQAPGKGLEWVSSISSSSSYKYYADSVKGRFTISRDNAKNSLYLQMNSLRAEDTAVYYCAREGGNSHGMDVWGQGTTVTVSS VL: NFMLTQPHSVSESPGKTVTISCTRSSGSIASNYVQWYQQRPGSSPTTVIYEDNQRPSGVPDRFSGSIDSSSNSASLTISGLKTEDEADYYCQSYDSSNRVFGGGTKLTVL",69,0.0358,0.0166,240000,131,0.36,0.0279,214000
"ABL-CD3-66 (antibody, V domains shown, mAb purified from hybridoma; chimeric AlivaMab IgG (human VH, CH1 and upper hinge; mouse middle hinge, CH2, CH3; human light chain)) VH: QVQLQESGPGLVKPSETLSLTCTVSGGSISSYYWSWIRQPAGKGLEWIGRIYASGSTYYNPSLKSRVTMSVDTSKNQFSLKLSSVTAADTAVYYCAREKRSRLYFDYWGQGTLVTVSS VL: NFMLTQPHSVSESPGKTVTISCTRSSGSIASNYVQWYQQRPGSSPTTVIYEDNQRPSGVPDRFSGSIDSSSNSASLTISGLKTEDEGDYYCQSYDRSNRVFGGGTKLTVL",78.2,0.41,0.0266,341000,92.8,0.09,0.0856,923000
"ABL-CD3-70 (antibody, V domains shown, mAb purified from hybridoma; chimeric AlivaMab IgG (human VH, CH1 and upper hinge; mouse middle hinge, CH2, CH3; human light chain)) VH: EVQLVESGGGLVKPGGSLRLSCAASGFTFSTYIMNWVRQAPGKGLEWVSSITSSSSYIYYADSVKGRFTISRDNAKNSLYLQMNSLRAEDTAVYYCAREKWELLFFDYWGQGTLVTVSS VL: NFMLTQPHSVSESPGKTVTISCTRSSGSIASNYVQWYQQRPGSSPTTVIYEDNQRPSGVPDRFSGSIDSSSNSASLTISGLKTEDEADYYCQSYDSSNRVFGGGTKLTVL",47.1,0.26,0.0101,214000,4.87,0.11,0.00339,697000
"ABL-CD3-67 (antibody, V domains shown, mAb purified from hybridoma; chimeric AlivaMab IgG (human VH, CH1 and upper hinge; mouse middle hinge, CH2, CH3; human light chain)) VH: EVQLVESGGGLVKPGGSLRLSCAASGFTVSSYSMNWVRQAPGKGLEWVSSISRSSSYIYYADSVKGRFTISRDNAKNSLFLQMNSLRAEDTAVYYCARERWELLYFDYWGQGTLVTVSS VL: NFMLTQPHSVSESPGKTVTISCTRSSGSIASNYVQWYRQRPGSSPTTVIYEDNQRPSGVPDRFSGAIDSSSTSASLTISGLKTEDEADYYCQSYDSSNRVFGGGTKLTVL",53.3,0.58,0.00485,90800,109,0.26,0.0178,163000
"ABL-CD3-71 (antibody, V domains shown, mAb purified from hybridoma; chimeric AlivaMab IgG (human VH, CH1 and upper hinge; mouse middle hinge, CH2, CH3; human light chain)) VH: QVQLQESGPGLVKPSETLSLTCTVSGGSINSYYWSWIRQPAGKGLEWIGRIYTSGSTNYNPSLKSRVTMSVDTSKKQFSLKLSSVTAADTAVYYCARERISRLYFDYWGQGILVTVSS VL: NFMLTQPHSVSESPGKTVTISCTRSSGSIASNYVQWYQQRPGSSPTTVIYEDNQRPSGVPDRFSGSIDSSSNSASLTISGLKTEDEADYYCQSYDRSNRVFGGGTKLTVL",58.8,0.48,0.0102,173000,55,0.11,0.0329,598000
